Source: patent US20100150985A1, “Dental Implant, Endodontic Instrument, and Dental Filling Material Coated with a Peptide-Based Antimicrobial and Methods of Using and Making the Same” (priority 2008, published 2010)

Legend:
[1] = retention of antimicrobial/biological activity after sterilization; conditions: peptide coated on a substrate, ethylene oxide sterilization
Source text: In a useful embodiment of the present invention, the antimicrobial peptides may retain antibacterial activity after a dental device coated with the antimicrobial, peptide is sterilized.

Staphylococcus aureus = assay: in-vitro assay of immobilized peptide on 316L stainless steel pins; assay type: cell-based; conditions: peptide covalently bonded to parylene coated stainless steel pins, after ethylene oxide sterilization; data not shown
Source text: Medical standard alloy 316L stainless steel pins were coated with an antimicrobial peptide layer to determine the efficacy of an immobilized antimicrobial peptide. The pins were coated with a tie layer. A parylene coating containing a reactive molecule specific for the N-terminus region of the peptide (“Photopolymer”) was then applied over the tie layer. The peptide WLBU-2 (SEQ ID NO. 179) was applied to the parylene coating and exposed to UV light to facilitate covalent bonding of the peptide with the parylene coating. Parylene coated stainless steel pins and non-coated stainless steel pins were used as controls. All samples and controls were subjected to ethylene oxide sterilization. The coated samples were placed in 75% relative humidity overnight.

RRWVRRVRRVWRRVVRVVRRWVVRR (RRWVRRVRRVWRRVVRVVRRWVRR; Artificial peptide derived from HIV-1) [WLBU-2, Lytic Base Unit peptide]
antimicrobial activity after sterilization [1]: retained antimicrobial activity
efficacy of immobilized antimicrobial peptide (Staphylococcus aureus): efficacy against Staphylococcus aureus
